This assay has as its target PSA (prostate specific antigen) (UniProt P07288 25-261). The experiment in a line: cell-based or functional assay.

Chain of PSA (prostate specific antigen) (P07288 25-261 limits assumed): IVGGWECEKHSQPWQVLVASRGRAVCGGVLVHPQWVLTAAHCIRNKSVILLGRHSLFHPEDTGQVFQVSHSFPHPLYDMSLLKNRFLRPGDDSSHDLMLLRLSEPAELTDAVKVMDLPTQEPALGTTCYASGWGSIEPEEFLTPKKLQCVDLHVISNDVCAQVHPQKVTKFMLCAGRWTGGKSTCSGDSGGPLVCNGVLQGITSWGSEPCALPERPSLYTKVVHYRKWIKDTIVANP

B1: H6-68-AP-PSA-VHH (other)
chain: SSGSKALLKGVRDFNPISACVCLLENSSDGHSERLFGIGFGPYIIANQHLFRRNNGELTIKTMHGEFKVKNSTQLQMKPVEGRDIIVIKMAKDFPPFPQKLKFRQPTIKDRVCMVSTNFQQKSVSSLVSESSHIVHKEDTSFWQHWITTKDGQCGSPLVSIIDGNILGIHSLTHTTNGSNYFVEFPEKFVATYLDAADGWCKNWKFNADKISWGSFILWEDAPGGEHSSKLQSGAGREYVRFAPGGSGGSGGSGGSGGSGGDVQLQESGGGSVQAGGSLRLSCVASGWIYIPPCMAWFRQAPGKERERVATINPSGRTYYADSTKGRFRISQDNVKRTLYLYMNSLKPEDTATYYCAADDGTCPRMEFDDWGQGTQVTVSSGGSHHHHHH
In the case of B1, the “sensitivity of the PSA biosensor assay” value is 2 fold better than the N-terminal VHH configuration.

The record behind these values is patent US9791436 (UNIVERSITY OF QUEENSLAND, dated 2017).
